Measurements taken from article PMC6355839, “Functional role of PGAM5 multimeric assemblies and their polymerization into filaments” (Nature Communications, 2019).
Changes are numbered by the printed parent chain. Names and notes keep the numbering of the source.

B1: PGAM5 MM peptide (linker domain residues 54–67, multimerization motif) (peptide)
peptide: GPGVWDPNWDRREP
notes: PGAM5 linker domain residues 54-67, holding the multimerization motif WDxxWD (58-63); source: synthetic peptide, bought: Elim Biopharma
B2: ∆90 PGAM5 (residues 91–289), isolated phosphatase domain, wild type (domain or fragment, UniProt Q96HS1 91-289, looked up)
chain: HYKAKATRHIFLIRHSQYHVDGSLEKDRTLTPLGREQAELTGLRLASLGLKFNKIVHSSMTRAIETTDIISRHLPGVCKVSTDLLREGAPIEPDPPVSHWKPEAVQYYEDGARIEAAFRNYIHRADARQEEDSYEIFICHANVIRYIVCRALQFPPEGWLRLSLNNGSITHLVIRPNGRVALRTLGDTGFMPPDKITRS
notes: PGAM5 long isoform (PGAM5L), residues 91-289, phosphatase domain; His6 followed by a TEV site (ENLYFQS); cleavage not described; also called Δ90 PGAM5; source: E. coli BL21 DE3 pLysS, purified (Ni-NTA, SEC on Superose 6)
B3: ∆90 PGAM5 H105A (residues 91–289), catalytically dead phosphatase domain (domain or fragment, UniProt Q96HS1 91-289, looked up)
chain: B2 chain with H15A
notes: PGAM5 long isoform (PGAM5L), residues 91-289, phosphatase domain, H105A; His6 followed by a TEV site (ENLYFQS); cleavage not described; also called Δ90 PGAM5 H105A; ∆90 H105A PGAM5; source: E. coli BL21 DE3 pLysS, purified (Ni-NTA, SEC)
B4: ∆48 PGAM5 (residues 49–289), wild type (domain or fragment, UniProt Q96HS1 49-289, looked up)
chain: GGARPGPGVWDPNWDRREPLSLINVRKRNVESGEEELASKLDHYKAKATRHIFLIRHSQYHVDGSLEKDRTLTPLGREQAELTGLRLASLGLKFNKIVHSSMTRAIETTDIISRHLPGVCKVSTDLLREGAPIEPDPPVSHWKPEAVQYYEDGARIEAAFRNYIHRADARQEEDSYEIFICHANVIRYIVCRALQFPPEGWLRLSLNNGSITHLVIRPNGRVALRTLGDTGFMPPDKITRS
notes: PGAM5 long isoform (PGAM5L, residues 1-289), residues 49-289: linker domain with the multimerization motif (58-63) and the PGAM phosphatase domain; His6 is followed by a TEV site (ENLYFQS); the methods describe no TEV cleavage; also called Δ48 PGAM5; ∆48 WT; source: E. coli BL21 DE3 pLysS, purified (Ni-NTA, SEC on Superose 6)
B5: ∆48 PGAM5 R65A (domain or fragment, UniProt Q96HS1 49-289, looked up)
chain: B4 chain with R17A
notes: PGAM5 long isoform (PGAM5L), residues 49-289, R65A; also called ∆48 R65A; source: E. coli BL21 DE3 pLysS, purified (Ni-NTA, SEC)
B6: ∆48 PGAM5 A4 (WDxxWD of the MM replaced by AAxxAA) (domain or fragment, UniProt Q96HS1 49-289, looked up)
chain: B4 chain with W10A, D11A, W14A, D15A
notes: PGAM5 long isoform (PGAM5L), residues 49-289, W58A/D59A/W62A/D63A; also called ∆48 A4; A4 mutant; source: E. coli BL21 DE3 pLysS, purified (Ni-NTA, SEC)
B7: ∆48 PGAM5 H105A (domain or fragment, UniProt Q96HS1 49-289, looked up)
chain: B4 chain with H57A
notes: PGAM5 long isoform (PGAM5L), residues 49-289, H105A; also called ∆48 H105A; source: E. coli BL21 DE3 pLysS, purified (Ni-NTA, SEC)
B8: ∆48 PGAM5 Y198E (domain or fragment, UniProt Q96HS1 49-289, looked up)
chain: B4 chain with Y150E
notes: PGAM5 long isoform (PGAM5L), residues 49-289, Y198E; also called ∆48 Y198E; source: E. coli BL21 DE3 pLysS, purified (Ni-NTA, SEC)
B9: ∆48 PGAM5 R269E (domain or fragment, UniProt Q96HS1 49-289, looked up)
chain: B4 chain with R221E
notes: PGAM5 long isoform (PGAM5L), residues 49-289, R269E; source: E. coli BL21 DE3 pLysS, purified (Ni-NTA, SEC)
B10: ∆48 PGAM5 R288E (domain or fragment, UniProt Q96HS1 49-289, looked up)
chain: B4 chain with R240E
notes: PGAM5 long isoform (PGAM5L), residues 49-289, R288E; also called ∆48 R288E; source: E. coli BL21 DE3 pLysS, purified (Ni-NTA, SEC)

Assays:
[1] = molecular target: B3; test: crystal structure; ∆90 H105A PGAM5 7.5 mg/mL with ASK1 peptide:MM peptide:protein 3:3:1; 100 mM Tris-Cl pH 7.0, 200 mM MgCl2, 10% PEG 8000; 2.6 Å; twelve molecules in the asymmetric unit; conditions: both partners purified
[2] = molecular target: the molecule itself; test: SEC; Superose 6 10/300 GL Increase; 20 mM Tris-Cl pH 8.0, 150 mM NaCl, 0.5 mM TCEP; salt titration up to 1 M NaCl
[3] = molecular target: the molecule itself; test: crystal structure; ∆90 H105A PGAM5 5 mg/mL with ASK1 peptide 5:1, without MM peptide; 100 mM HEPES pH 7.5, 200 mM MgCl2, 30% PEG 400; 1.7 Å; two molecules in the asymmetric unit
[4] = molecular target: the molecule itself; test: crystal structure; ∆90 H105A PGAM5 7.5 mg/mL with ASK1 peptide:MM peptide:protein 3:3:1; 100 mM Tris-Cl pH 7.0, 200 mM MgCl2, 10% PEG 8000; 2.6 Å; twelve molecules in the asymmetric unit
[5] = molecular target: the molecule itself; test: cell-based or functional assay
[6] = molecular target: the molecule itself; test: cryo-EM structure; 2D class averages only (top view, 4.5 Å); 0.10 mg/mL in 20 mM Tris-Cl pH 8.0, 600 mM NaCl, 0.5 mM TCEP
[7] = molecular target: the molecule itself; test: negative-stain electron microscopy; samples from SEC peaks (~0.01–0.1 mg/mL), 0.75% uranyl formate; 150 mM NaCl buffer; filaments decompose into rings at 300 and 750 mM NaCl

Row | Binder | stoichiometry N [2] | Kcat/Km of dephosphorylation of the ASK1 phosphopeptide (20 nM enzyme) [5] | further results
1 | B1 | – | – | binding result [1]: binds
2 | B2 | 2 | – | –
3 | B3 | – | – | stoichiometry N [3]: 2; stoichiometry N [4]: 12
4 | B4 | 2 | 19800 M⁻¹ s⁻¹ | stoichiometry N [6]: 12
5 | B5 | 2 | 3170 M⁻¹ s⁻¹ | –
6 | B6 | 2 | – | –
7 | B7 | – | – | binding result [2]: binds
8 | B8 | 2 | 10000 M⁻¹ s⁻¹ | –
9 | B9 | – | – | binding result [7]: binds
10 | B10 | – | 13700 M⁻¹ s⁻¹ | stoichiometry N [7]: 12
